Assay results as given in the nanobody polyreactivity screen of Harvey et al. (2022).

Test: yeast display, Sf9 membrane polyspecificity reagent, FACS + sequencing; frameworks hold sequencing errors
How it was run: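 Galactose-induced (36–48 hours) yeast carrying a synthetic nanobody display library were exposed to 10% biotinylated, detergent-solubilized Sf9 membrane reagent at 4 °C for 1 hour. FACS followed streptavidin microbead enrichment, using low and high (top ~1%) gates for expression (anti-HA) and reagent binding (streptavidin). Colony PCR, MiSeq 2 × 250 sequencing and CDR-length filtering followed. Labels for polyreactivity reflect the gate of origin.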

| Sequence | polyreactivity (PSR sort gate) |
| --- | --- |
| QVQLVESGGGLVQAGGRLSLSCAASGSTLWGYAMGWYRQAPGKERELVATINQSAGSTYYADSVKGRFTISRDHAKNSVYLQMHSLKPEVTAVYYCAAEALVQFSYDYWGQGTQVTVSS | low polyreactivity |
| QVQLVESGGGLVQAGGSLRLSCAASGFIVKRYARGWYRQAPGKERELVAAITSSGGRTYYADSVKGRFTISRDTAKNTVYLQMNSLKPEDTAVYYCAKGWSTYYTKMNYWGQGTQVTVSS | high polyreactivity |
| QVQLVESGGGLVQAGGSLRLSCAASGRIFVGYAMGWYRQAPGKERELVAAINRSGSSTYYADSVKGRFTISRDNAKNTVYLQTNSLKPEDTAVYYCAVRPLYDRRYTAVRRYDYWGQGTQVTVSS | high polyreactivity |
| QVQHVESGGGLVQAGGSLRLSCAASGRIFDSYAMGWYRQAPGKERELVATISWDSASTYYADTVKGRFTISRDNAKNTVYLQMNCLNPEDTAVYYCAAGGSSSWAFNYWGQGTQVTVSS | low polyreactivity |
| QVQLVESGGGLVQAGGSLRLSCAASGRTFTTNAMGWYRQAPGKERELVAAITSTTRTYYADSVKGRFTISRDNAKNTVYLQMNSLKPEDTAVYFCAARYPTPWGYYYWGQGTQVTVSS | high polyreactivity |
| QVQLVESGGGLVQAGGSLRLSCAASGSIFTSNAMGWYRQAPGKERELVAAITSSSSTNYADSVKGRFTISRDNAKNTVYLQMNSLKPEDTAVYYCAKQGNNIPWYRPYGDYYYWGQGTLVTVSS | low polyreactivity |
| QVQLVESGGGLVQAGGSLRLSCAASGSTFFPYAMGWYRQAPGKERELVAGISSDGGTSYADSVKGRFTISRDNAKNTVYLQMNSLKPEDTAVYYCAARGLLWYYSWRYYYWGQGTQVTVSS | low polyreactivity |
| QVQLVESGGGLVQAGGSLRLSCAPSGRILAYYAMGWYRQAPGKEREFVAAIDSGSSTNYADSVKGRFTISRDNAKNTVYLQMNSLKPEDTAVYYCAARIRWWYYYLRSQTYYYWGQGTQVTVSS | low polyreactivity |
| QVQLVESGGGLVQAGGSLRLSCAASGYIFNYYAMGWYRQAPGKERELVAAISWDGTDTYYADSVKGRFTISRDNAKNTVYLQMNSLKPEDTAVYYCNADYDVYGWRNYWGQGTQVTVSS | low polyreactivity |
| QVQLVESGGGLVQAGGSLRLSCAASGSTFFVYDMGWYRQAPGKERELVAAISSGGTTTYADSVKGRFTISRDNAKNTVNLQMNSLKPEDTAVYYCNARQYTRPYAFDYWGQGTQVTVSS | low polyreactivity |
| QVQLVESGGGLVQAGGSLRLSCAASGFIFYDYDMGWYRQAPGKERELVAAITYSGGSTYYADSVKGRFTISRDNAKNTVYLQMNSLKPEDTAVYYCAAVKSRYAEAVDYYYWGLGTQVTVSS | low polyreactivity |
| KVQLVESGGGLVQAGGSLRLSCAASGSTFFDNAKGWYRQAPGKERELVDAISWSGGSTYYADSVKGRFTISRDNAKNTVYFQMNSLKPEDTAVYYCAADWGHGTQVTVSS | low polyreactivity |
| QVQLVESGGGLVQAGGSLRLSCAATGFTFGFNDMGWYRQAPGKERELVAAISWSGGRTYYADSVKGRFTISRDNAKNTVYLQMNSLKPEDTAVYDCAAEGVGRADRNKEYDYWGQGTQVTVSS | high polyreactivity |
| QVQLVESGGGLVQAGGSLRLSCAASGRTFSKNTMGWYRKAPGKERELVASITRRGGSTYYADSVKGRFTISRDNAKNTVYLQMKSLKPEDTAVYYCAVRWRDYRGSYRGFEYWGQGTQVTVSS | high polyreactivity |
| QVQLVESGGGLVQAGGSLRLSCAASGSIFQGYAMGWYRQAPGKERELVASISRGGSTNYADSVKGRFTISRDNAKNTVYLQMNSLKPEDTAVYYCAARAYWYGRYGYWGQGTQVTVSS | high polyreactivity |
| QVQLVESGGGLVQAGGSLRLSCAASGFIYHNAMGWYRQAPGKERELVARITWSGGSTSYADSVKGRFTISRDNAKNTVYLQMTSLKPEETAVYYCAARGVVYRYGASRGYWGQGTQVTVSS | high polyreactivity |
| QVQLVESGGGLVQAGGSLRLSCAASGRMFKINAMGCYRQAPGKERELVASIRTSSGSTYSADSVKGRFTLSRDNAKNTVYLQMNSLKPEDTAVYYCATQYRYYNHFVTPFTRYGYWGQGTQVTVSS | high polyreactivity |
| QVQLVESGGGLVQAGGSLRLSCEASGRIFGWYAMGWYRQAPGNERELVAALTNSGGSTYYADSVKGRFTISRDYEKNTVYFQMNRLKPEDTGVYFCAAESWIRRWYGGGKKYEYWGQGTQVTVSS | high polyreactivity |
| QVQLVESGGGLVQAGGSLRLSCAASGITIRRYAMGWYRQAPGKERELVAAISTSGGGTYYADSVKGRFTISRDNAKYTVYLQMNSLKPEDTAVYYCAARYLGYLLSGYPPYDYWGQGTQVTVSS | high polyreactivity |
| QVHHVESGGGLVQAGGSLRLSCAASGSTIDEYAMGWYRQAPGKERELVAAIDWSTGSTYYADSVKGRFTISRDNAKNTVYLQMNSLKPEDTAVYYCAADSGYGPYYYWGQGTQVTVSS | high polyreactivity |
| QVQLVESGGGLVQAGGSLRLSCAASGRTFGRYAMGWYRQAPGKERELVATITSGGSTNYADSVKGRFTISRDNAKNTVYIQMKSMKPEDTAVYYCAAEFSPSRWAYSEGALRYYYWGQGTQVTVSS | low polyreactivity |
| QVQLVESGGGLVQAGGSLRLSCAASGSIFVYNAMGWYRQAPGKERELVAAIDTVGSTNYADSVKGRFTISRDNAKNTVYLQMNSLKPEDTAVYYCAVVTPYWSFYEQVIPSNYWGQGTQVTVSS | low polyreactivity |

| Sequence | polyreactivity (PSR sort gate) |
| --- | --- |
| QVQLVESGGGLVQAGGSLRLSCAASGRTFQLYAMGWYRQAPGKEMELVAAISTRGGSTYYADSVKGRFTISRDNAKNTVYLLMNSLKPEDTAVYYCAKDPSFTRGYKEGGGYDYWGQGTQVNVSS | high polyreactivity |
| QVQLVDSGGGLVQAGGSLRLSCASSGSTFVLYAMGWYRQAPGKERELVAAITWSGDDTYYADSVKGRFTISRDNAKNTVYLQMNSLKPEDTAVYYCAAAYADWGQGTQVTVSS | low polyreactivity |
| QVQLVESGGGLVQAGGSLRLSCAASGRIFYGNAMGWYRQAPGKERQLVAAITDGGSTNYADSVKGRFTISRDNAKNTVYLQINSLKPEDTAVYYCNADNILYWSTLDYWGQGTQVTVSS | low polyreactivity |
| QVHLVESGGGLVQAGGSLRLSCAASGFIFLGNAMGGYRQAPGKERELVAAISSGGSTYADSVKGRFTISRDNAKNTVYLQMNSLKPEDTAVYYCAVDRAFRAQNYHEYDYWGQGTQVTVSS | low polyreactivity |
| QVQLVESGGGLVQAGGSLRLSCAASGYTFTAYAMGWYRQAPGKERELVAAISKGGGSTYYADSVKGRFTISRDNAKNTVYLQMNSLKPEDTAVYYCAADTYQGVKYYYWGQGTQVTVSS | high polyreactivity |
| QVQLVESGGGLVQAGGSLRLSCAASGITFVNYAMGWYRQAPGKERELVAAISGDGGNTYYADSVKGRFTISRDNAKNTVYLQMNSLKPEDTAVYYCAATPYLYRLYGYWYRPYYYWGQGTQVTVSS | high polyreactivity |
| QVQLVESGGGLVQAGGSLRLSCAASGRIFSFNAMGWYRQAPGKERELVAAISWSTGSTFYADSVKGRFTISRDNAKNTVYLQMNSLKPEDTAVYYCATGFPHPKRNVNRRNYWGQGTQVTVSS | high polyreactivity |
| QVQLVESGGGLVQAGGSLRLSCAASGRIFRYYAMVWYRQAPRKERELVAGITRGGTTNYADSVKGRFTISRDNAKNTVYLQMNSLKPEDTAVYYCAADTRRGIIGYDYWGQGTQVTVSS | high polyreactivity |
| QVQLVESGGGLVQAGGSLRLSCAASGSIFVRYAMGWYRQAPGKEREFVAARTGNTDYADSVKGRFTISRDNAKNTVYLQMNSLKPEDTAVYYCARRPRSGTVSTPYYSLDYWGQGTQVTVSS | low polyreactivity |
| QVQLVETGGGLVQAGGSLRLSCAASGFTFRFYAMGWSRQPPGKERELVAAISRGGSTYYADSVKVRFTISRYNEKNTVYLQMNSLKPEDTAVYYCAKRGRYGGYWGQGTQVTVSS | high polyreactivity |
| QVQLVDSGGGLVQAGGSLRLSCAASGRPSVLMLMGWYRQAPGKERELVAAIDDSTDTTYYADSVKGRFTISRDNAKNTVYLQMNSLKPEDTAVYYCAAEEGYVKFSGSWSYGYDYWGQGTQVTVSS | high polyreactivity |
| QVHLVESGGGLLQAGGSLRLSCAASGSTFSINGMGWYRQAPGKERELVAAITWRGTRTYYADSVKGRFTISRDNAKNTVYLEMNSLKPEVTAVYYCAATGSGEASFYYWGQGTQVTVSS | high polyreactivity |
| QVQHGESGGGLVQAGGRLRLICAASGSISVWYVMGWYRQAPGKERELVAAITRSGGSTFYADSVKGRFTISRDNAKNTVYLEMNSLKPEDTAVYYCAADFPSLYVWYGYGWYKYDYWGQGTQVTVSS | low polyreactivity |
| QVQLVESGGGLVQAGGSLSLSCAASGSTIVYYAMGWYRPAPRKERELVAAINYSSGSTYYADSVKGRFTISRDNSKKTVYLQMNSLKPEDRAVYYCATDLLYYQYYSEYDYWGQGTQVTVSS | high polyreactivity |
| QVQLVESGGGLVQAGGSLRLSCAASGSTFDSYAMGWYRQAPGKERELVAAITRSDASTYYADSVKGRFTISRDNAKNTVYLQMNSLKPEDTAVYYCDADTSLVYYGGDWEYYYWGQGTQVTVSS | low polyreactivity |
| QDQLEESGGGLVQAGGSLRLSCAASGRIFFRNLMGAYRQPTGKERELVATITSGGRTYYADSVKGRFTISRDNAKNTVYLQMNSLKPVDTAVYYCATVYRPGGVYGYEYWGQGTQVTVSS | high polyreactivity |
| QVQLVESGGGLVQAGGSLRLSCAASGSILYVYAMGWYRQAPGKERELVATITGRVVSTNYADSVKGRFTISRDNAKNTVYLQMNSLKPEDTAVYYCAARTRRRRGEYDYWGQGTQVTVSS | high polyreactivity |
| QVQLVESGGGLVQSGGSLRLICAASGSTFGRYPMGWYRQAPGKERELVARISSGGSTTYADSVKGRFTISRDNAKNTVYFLRNSLKTEETAVYYSAADTPYWRYDYWGQGTQVTVSS | high polyreactivity |
| QVQLVESVGGLVQAGGSLRLSCSASGRTFAFYAMGWYRQAPGKVRELVASISSTGDRTYYADSVKGRFTISRDNAKNTVYLQMNSLIPEDTAVYYCAARWRYTYYYWGQGTQVTVSS | high polyreactivity |
| QVQLVESGGGLVQAGGSLRLSCAASGRILDVNDMGWYRQAPGKERELVAAISSGTNTYYADSVKGRFTISRDNAKNTVYLQMNSLKPEDTAVYYCAADYLGLSDADDYDYWGQGTQVTVSS | low polyreactivity |
| QVQLVESGGGLVQAGGSLRLSCAASGNIIVENAMGWYRQAPAKERELVAVSTSGTSTYADSVKGRFTISRDNAKITVYLQMNSLKPEDTAVYYCNARRINTLYDYWGQGTQVTVSS | low polyreactivity |
